The test addresses human high affinity Fc gamma receptor, Fc gamma RI (human) (UniProt P12314). In words: enzymatic cell-binding assay.
Chain of UniProt P12314 (P12314 16-374): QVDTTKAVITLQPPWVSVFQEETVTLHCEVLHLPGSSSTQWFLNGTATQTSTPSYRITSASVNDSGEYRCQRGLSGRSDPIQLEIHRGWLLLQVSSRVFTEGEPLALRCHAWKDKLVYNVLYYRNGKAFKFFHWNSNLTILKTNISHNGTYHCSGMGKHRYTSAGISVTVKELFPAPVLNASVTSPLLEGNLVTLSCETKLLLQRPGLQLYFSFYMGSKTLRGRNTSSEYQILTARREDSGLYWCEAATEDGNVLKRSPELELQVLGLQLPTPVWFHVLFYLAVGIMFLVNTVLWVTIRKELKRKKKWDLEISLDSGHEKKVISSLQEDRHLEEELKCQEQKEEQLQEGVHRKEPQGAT
Regarding “CH1-deleted chimeric anti-dansyl IgG3 (IgG3 ΔCH1) (antibody)”, the Ka was 2e+08 M⁻¹.
“chimeric anti-dansyl IgG3 (murine variable regions, human IgG3 constant region, human kappa light chain) (antibody)” had a Ka of 1.2e+09 M⁻¹.
“chimeric anti-dansyl IgG3 bearing a hinge encoded by the first (unique) gamma 3 hinge exon (IgG3h1) (antibody)” came in with a Ka of 2.2e+08 M⁻¹.
On the same count and under the same terms, as for “chimeric anti-dansyl IgG3(Ser[331]) (antibody)”, the figure is 3.1e+08 M⁻¹.
“chimeric anti-dansyl IgG4 (murine variable regions, human IgG4 constant region, human kappa light chain) (antibody)” had a fold reduction in binding activity relative to IgG1 and IgG3 of 10 fold.
The substance “chimeric anti-dansyl IgG4(Leu[234]) (antibody)” came in with a Ka of 3.8e+08 M⁻¹.
Regarding “chimeric anti-dansyl IgG4(Leu[234], Pro[331]) (antibody)”, the Ka stood at 1.3e+08 M⁻¹.
“exon-exchange chimeric anti-dansyl IgG 2232 (IgG2 with a gamma 3 CH2 domain) (antibody)” displayed a Ka of 2.8e+08 M⁻¹.
On the same count and under the same terms, the result for “exon-exchange chimeric anti-dansyl IgG 3332 (IgG3 bearing the CH3 domain of IgG2) (antibody)” reads 1.8e+09 M⁻¹.

(Values after PMC2190830.)
